Reference: the supplement of paper PMC5998384

Columns and labels:
HeLa Kyoto [1] = test: solubility in G1/S (NP-40 vs SDS abundance) (log2 ratio); higher = more soluble; settings: cell cycle stage: G1/S
HeLa Kyoto [2] = test: melting temperature (median over replicates), in situ; higher = more thermally stable
HeLa Kyoto [3] = test: solubility change mitosis vs G1/S (difference of NP-40 vs SDS log2 ratios) (log2 ratio difference); higher = more soluble in mitosis
HeLa Kyoto [4] = test: thermal stability score vs G1/S (z-score of summed log2 fold changes over temperatures); higher = more thermally stable than in G1/S
[5] = cell cycle stage: early G1 (4.5 h after nocodazole release)
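Wherever melting temperature (median over replicates), in situ is given: HeLa Kyoto cells synchronized by double thymidine or nocodazole block, proteins quantified by TMT10plex mass spectrometry, three independent biological replicates.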
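Wherever solubility change mitosis vs G1/S (difference of NP-40 vs SDS log2 ratios) is given: synchronized HeLa Kyoto cells (double thymidine block for G1/S, nocodazole release for mitosis), protein amounts in NP-40 versus SDS lysates quantified by mass spectrometry, three biological replicates.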
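Wherever solubility in G1/S (NP-40 vs SDS abundance) is given: HeLa Kyoto cells arrested at G1/S by double thymidine block, proteins quantified by TMT10plex mass spectrometry in mild NP-40 versus SDS extracts, three biological replicates.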
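Wherever thermal stability score vs G1/S (z-score of summed log2 fold changes over temperatures) is given: synchronized HeLa Kyoto cells, proteins quantified by TMT10plex mass spectrometry, three biological replicates, mitosis taken 0.5 h after nocodazole release, G1/S directly after double thymidine block.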

Substance	solubility in G1/S (log2) (HeLa Kyoto [1])	melting temperature (HeLa Kyoto [2]; cell cycle stage: G1/S) [°C]	melting temperature (HeLa Kyoto [2]; cell cycle stage: mitosis) [°C]	solubility change mitosis (log2) (HeLa Kyoto [3])	thermal stability score (HeLa Kyoto [4]; [5])	thermal stability score (HeLa Kyoto [4]; cell cycle stage: mitosis)
MSRKGPRAEVCADCSAPDPGWASISRGVLVCDECCSVHRSLGRHISIVKHLRHSAWPPTLLQMVHTLASNGANSIWEHSLLDPAQVQSGRRKANPQDKVHPIKSEFIRAKYQMLAFVHKLPCRDDDGVTAKDLSKQLHSSVRTGNLETCLRLLSLGAQANFFHPEKGTTPLHVAAKAGQTLQAELLVVYGADPGSPDVNGRTPIDYARQAGHHELAERLVECQYELTDRLAFYLCGRKPDHKNGHYIIPQMADSLDLSELAKAAKKKLQALSNRLFEELAMDVYDEVDRRENDAVWLATQNHSTLVTERSAVPFLPVNPEYSATRNQGRQKLARFNAREFATLIIDILSEAKRRQQGKSLSSPTDNLELSLRSQSDLDDQHDYDSVASDEDTDQEPLRSTGATRSNRARSMDSSDLSDGAVTLQEYLELKKALATSEAKVQQLMKVNSSLSDELRRLQREIHKLQAENLQLRQPPGPVPTPPLPSERAEHTPMAPGGSTHRRDRQAFSMYEPGSALKPFGGPPGDELTTRLQPFHSTELEDDAIYSVHVPAGLYRIRKGVSASAVPFTPSSPLLSCSQEGSRHTSKLSRHGSGADSDYENTQSGDPLLGLEGKRFLELGKEEDFHPELESLDGDLDPGLPSTEDVILKTEQVTKNIQELLRAAQEFKHDSFVPCSEKIHLAVTEMASLFPKRPALEPVRSSLRLLNASAYRLQSECRKTVPPEPGAPVDFQLLTQQVIQCAYDIAKAAKQLVTITTREKKQ [GIT1]	0.235	48.4	50	-0.123	0.709	0.998
MSKGPGPGGSAASSAPPAATAQVLQAQPEKPQHYTYLKEFRTEQCPLFVQHKCTQHRPYTCFHWHFVNQRRRRSIRRRDGTFNYSPDVYCTKYDEATGLCPEGDECPFLHRTTGDTERRYHLRYYKTGICIHETDSKGNCTKNGLHCAFAHGPHDLRSPVYDIRELQAMEALQNGQTTVEGSIEGQSAGAASHAMIEKILSEEPRWQETAYVLGNYKTEPCKKPPRLCRQGYACPYYHNSKDRRRSPRKHKYRSSPCPNVKHGDEWGDPGKCENGDACQYCHTRTEQQFHPEIYKSTKCNDMQQSGSCPRGPFCAFAHVEQPPLSDDLQPSSAVSSPTQPGPVLYMPSAAGDSVPVSPSSPHAPDLSALLCRNSSLGSPSNLCGSPPGSIRKPPNLEGIVFPGESGLAPGSYKKAPGFEREDQVGAEYLKNFKCQAKLKPHSLEPRSQEQPLLQPKQDMLGILPAGSPLTSSISSSITSSLAATPPSPVGTSSVPGMNANALPFYPTSDTVESVIESALDDLDLNEFGVAALEKTFDNSTVPHPGSITIGGSLLQSSAPVNIPGSLGSSASFHSASPSPPVSLSSHFLQQPQGHLSQSENTFLGTSASHGSLGLNGMNSSIWEHFASGSFSPGTSPAFLSGPGAAELARLRQELDEANSTIKQWEESWKQAKQACDAWKKEAEEAGERASAAGAECELAREQRDALEVQVKKLQEELERLHAGPEPQALPAFSDLEALSLSTLYSLQKQLRAHLEQVDKAVFHMQSVKCLKCQEQKRAVLPCQHAALCELCAEGSECPICQPGRAHTLQS [UNK]	0.0454	51	50.9	-0.0731	0.349	1.68
ALDH6A1	0.179	49.3	49.9	-0.072	0.0292	0.822
